From patent US20100304465

Test system: delta-plasminogen
Sequence (chain, as listed by the source mutant): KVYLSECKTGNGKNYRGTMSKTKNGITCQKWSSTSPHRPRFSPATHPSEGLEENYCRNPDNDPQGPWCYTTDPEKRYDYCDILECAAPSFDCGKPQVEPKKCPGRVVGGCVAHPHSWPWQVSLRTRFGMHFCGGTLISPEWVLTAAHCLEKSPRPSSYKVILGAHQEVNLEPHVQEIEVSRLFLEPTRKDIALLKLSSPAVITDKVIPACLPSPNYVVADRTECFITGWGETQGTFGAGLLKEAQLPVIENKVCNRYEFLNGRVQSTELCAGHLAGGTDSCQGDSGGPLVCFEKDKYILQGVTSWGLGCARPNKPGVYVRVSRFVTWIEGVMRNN

## urokinase
  conversion of one-chain delta-plasminogen into two-chain delta-plasmin (reduced SDS-PAGE): delta-plasminogen indeed can be activated by all three plasminogen activators
